Consider four molecules from US6858210B1, “Therapeutic and diagnostic domain 1 β2GPI polypeptides and methods of using same” (La Jolla Pharmaceutical Co., priority 1998, dated 2005).

The subject of experiment [1] is human β2GPI-dependent antiphospholipid antibody. The experiment can be described thus: Micropanning of mutant domain 1 phage, patient antibodies. The experiment is classed as binding. Particulars: for Micropan score: Table 7B.
The next experiment relates to rabbit anti-human β2GPI. Description: Micropanning of mutant domain 1 phage, rabbit antibody. The experiment is classed as binding. Further details: key: 0 (<10 colonies) to 4+ (confluent) semiquantitative colony score. Particulars: for Micropan score: Table 7B; for μpan score: Table 7A. The protocol: Error prone PCR was carried out as follows. Domain 1 of human β2GPI was amplified by PCR under conditions that enhance the error rate of Taq polymerase. The primers were such that amino acids 1-64 were amplified. A Sfc 1 restriction site was incorporated as part of amino acid 1. At the 3′ end a Sal 1 restriction site was incorporated after amino acid 64. The PCR reaction was done as described by Leung et al. (1989) Technique 1:11, using 0.25 mM MnCl2. The PCR product was digested with Sfc 1 and Sal 1 and cloned into fd-tet-DOG2 that had been digested with Apal 1 and Sal 1. This positions domain 1 at the N-terminus of pill immediately after the pill signal sequence. The ligation reaction was electroporated in E. coli K91. Phage were harvested and titered by standard methods. Resulting phage clones were assayed using a micropanning technique.
Immulon type 2 plates were coated with protein G. Protein G was prepared at 5 μg/mL in 0.1 M NaHCO3 and 100 μL per well was added to the wells of microtitration plates and incubated overnight at 4° C. After discarding excess protein G solution from plates, each well was blocked with 200 μL 2YT for 1 hour at RT with agitation on an oscillating platform. Tris-buffered saline, pH 7.4/0.5% Tween 20 (TBS/Tween), was used with an automatic plate washer to wash the wells 4 times with 200 μL. One hundred μL human β2GPI-dependent antiphospholipid 6626, 6501, 6701, rabbit β2GPI-dependent antiphospholipid, or control normal IgG, diluted to 2.5 μg/mL with 2YT, was added to washed wells. The plate was incubated for 1 hour at room temperature on a rotating platform.
Phage to be tested by micropanning were obtained from the agar plates generated by biopanning. Each clone to be tested was transferred using sterile toothpicks to a separate well of a round-bottom 96-well microtitration plate (Corning, Corning, N.Y.) containing 200 μL 2YT/Tet per well and cultured overnight at 30° C. Following overnight incubation, phage cultures were centrifuged using a microtitration plate holder at 1300×g for 10 minutes at room temperature. Supernatants constituted the source of “neat” phage. The neat phage were diluted 1: 100-1:1000 and 100 μL was added to the plate containing protein G-bound β2GPI-dependent antiphospholipid antibody-6501 and normal IgG prepared as described above. The incubation of dilute phage with aPL antibody or control IgG was carried out for 2 hours at room temperature on a flat rotator. After 9 washes with TBS/Tween in an automated plate washer, the IgG-bound phage was eluted with 20 μL of 0.2 N HCl-glycine/0.1% BSA, pH 2.2. The elution incubation continued for 10 minutes at RT, during which time a new Corning microtitration plate was prepared containing 20 μL of freshly starved E. coli per well and kept chilled. One hundred forty μL of 29 mM Tris was added to the plate containing the phage eluates in order to neutralize the pH, following which 20 μL of phage suspension was transferred from each well to the corresponding well in the plate containing starved E. coli. After a 10 minute incubation at 37° C., 200 μL 2YT was added and incubation carried out an additional 30 minutes at 37° C. Using multichannel pipettors, 8 μL from each well was spotted on a large 2YT/Tet agar plate while retaining the original 8×12 well pattern and orientation from the last microtitration plate. After allowing the spots to dry for 30 minutes, the plate was incubated overnight at 30° C. The following day, colonies were semiquantitatively scored from 0 to 4+, with 0 symbolizing <10 colonies; 1+=10-30; 2+=30 colonies to 70% confluent; 3+=70%-90% confluent; 4+=confluent.
For Table 7A, the rabbit anti-human β2GPI was performed on two separate occasions. Mutations are listed with the original amino acid, the position number, and the identity of the amino acid at that position in the mutant. […] Non-mutated domain 1 have a score of 3+, while domain 5 phage gave a score of −. Silent mutations are not shown. […]

Experiment [2] relates to affinity purified β2GPI-dependent antiphospholipid antibody. Description: Competitive inhibition ELISA: recombinant β2GPI proteins compete for antibody binding to coated full length recombinant β2GPI. On the set-up: species or system human. Particulars: for IC50: read-out: 50% (concentration to give 50% inhibition). As to the method:
Microtiter plates (MaxiSorp™, Nalge Nunc International, Denmark) were coated with 50 μl of full length recombinant β2GPI at 10 μg/ml in 0.1 M bicarbonate, pH 9.5, incubated overnight at 4° C., washed three times with 0.15 M PBS, pH 7.2, and blocked for one hour at room temperature with 75 μl of 2% Non-fat Dried Milk (Carnation, 2% NFDM). Test inhibitors were diluted in 2% NFDM and 25 μl of each dilution was added to coated wells. Affinity purified β2GPI-dependent antiphospholipid antibody was diluted in 2% NFDM and 25 μl, of a constant concentration, was added to the wells, including a group of wells that had no inhibitor, which acted as the positive controls. The contents of the wells were mixed and the plates were incubated at 37° C. for one hour. The plates were washed three times with PBS, 50 μl of alkaline phosphatase conjugated anti-human IgG, gamma chain specific, (Zymed #62-8422) diluted appropriately in 2% NFDM was added and incubated at 37° C. for one hour. The plates were washed three times with PBS, 50 μl of alkaline phosphatase PPMP chromogenic substrate solution was added and incubated for 30 minutes, at room temperature. The Optical Density, at 550 nm, was determined by reading the plates in a microplate autoreader (Bio-Teck Instruments, model EL3 11). The percent inhibition was determined by dividing the OD550 obtained in the presence of inhibitor by the mean OD550 obtained from the wells without inhibitor and then multiplying by 100 (more particularly, [mean A550 obtained from control wells without inhibitor less A550 of background] minus [A550 obtained in presence of inhibitor less A550 of background] divided by [mean A550 obtained from control wells without inhibitor less A550 of background] times 100).
Seven to nine different recombinant β2GPI mutant proteins were used to determine the antigenic specificity of affinity purified β2GPI-dependent antiphospholipid antibody preparations from 13 different patients. Each mutant recombinant β2GPI protein was tested, in a dose dependent fashion, for its ability to inhibit affinity purified β2GPI-dependent antiphospholipid antibody from binding to full length recombinant β2GPI. The following values were also observed for domain 1 only recombinant protein (1 - - - -; see Table 2 for designations): […]

For experiment [3] the test system is unchanged. The experiment can be described thus: Direct binding ELISA, nickel chelate-coated wells charged with recombinant β2GPI proteins (no cardiolipin). On the set-up: species or system human. To be noted: O.D. at 550 nm. As to the method:
Nickel Chelate-coated microwell plates (NCP 010 00 Xenopore Corp. 374 Midland Ave. Saddle Brook, N.J. USA) were coated with 50 μl of serial dilutions of the various recombinant β2GPI, in PBS, at room temperature for 2 hours. The plates were washed three times with PBS and blocked with 75 μl of a 1% gelatin (Sigma #G-2500) in PBS for one hour room temperature. […] The plates were washed three times with PBS, 50 μl of alkaline phosphatase conjugated anti-immunoglobulin (anti-human IgG, gamma chain specific, Zymed #62-8422) or anti-rabbit IgG (Zymed #62-6122) diluted appropriately in 1% gelatin was added and incubated at 37° C. for one hour. The plates were washed three times with PBS, 50 μl of alkaline phosphatase PPMP chromogenic substrate solution was added and incubated for 30 minutes at room temperature. The optical density, at 550 nm, was determined by reading the plates in a microplate autoreader (Bio-Teck Instruments, model EL311).
Seven to nine different recombinant β2GPI mutant proteins were examined to determine if they could support the direct binding of affinity purified β2GPI-dependent antiphospholipid antibody preparations in the absence of anionic phospholipid. All recombinant mutant β2GPI were assayed with affinity purified β2GPI-dependent antiphospholipid antibody preparations from 11 different patients. Each mutant recombinant β2GPI protein was tested, in a dose dependent fashion and GST-6his was included as a negative control. The recombinant mutant β2GPI proteins were bound to nickel coated microtiter plates via their 6-his tail. All recombinant mutant β2GPI proteins tested bound rabbit anti-β2GPI showing that they were assessable by antibody (FIG. 5).
A general note: An ELISA detects its analyte on a solid surface through an enzyme-linked reagent.

Where two headings read alike, the source gives them in different places.

B1: Dom1: phage displaying wild type (WT) domain 1 (protein)
chain: GRTCPKPDDLPFSTVVPLKTFYEPGEEITYSCKPGYVSRGGMRKFICPLTGLWPINTLKCTPRV
B1: the Micropan score in experiment [1] (antibody 6226), in experiment [1] (antibody 6501), in experiment [1] (antibody 6632), in experiment [1] (antibody 6644), in experiment [1] (antibody 6701) and in experiment [1] (antibody 7008) was 4 throughout. Moreover, the Micropan score in the experiment on rabbit anti-human β2GPI (1st column), in the experiment with rabbit anti-human β2GPI (2nd column), in the experiment on rabbit anti-human β2GPI (3rd column), in the experiment with rabbit anti-human β2GPI (4th column) and with rabbit anti-human β2GPI (5th column) was 4 throughout. The μpan score in experiment [1] (control phage for Table 7A, antibody not stated) is reported as 3+ (3+=70%-90% confluent).

B2: 3F8: phage clone, domain 1 mutant T50A (protein)
chain: GRTCPKPDDLPFSTVVPLKTFYEPGEEITYSCKPGYVSRGGMRKFICPLAGLWPINTLKCTPRV
B2: the Micropan score in experiment [1] (antibody 6226) was determined as 2; in experiment [1] (antibody 6501), 2; in experiment [1] (antibody 6632), 2; in experiment [1] (antibody 6644) it was 3; in experiment [1] (antibody 6701) it was 2; in experiment [1] (antibody 7008), 3.

B3: D11: phage clone, domain 1 mutant N56D (protein)
chain: GRTCPKPDDLPFSTVVPLKTFYEPGEEITYSCKPGYVSRGGMRKFICPLTGLWPIDTLKCTPRV
Consider B3, for which the figures for the μpan score with rabbit anti-human β2GPI (first (or only) value) and in the experiment on rabbit anti-human β2GPI (second value (second occasion)) were 2 and 3, respectively.

B4: 12---: recombinant β2GPI deletion mutant with domains 1 and 2 (protein)
chain: GRTCPKPDDLPFSTVVPLKTFYEPGEEITYSCKPGYVSRGGMRKFICPLTGLWPINTLKCTPRVCPFAGILENGAVRYTTFEYPNTISFSCNTGFYLNGADSAKCTEEGKWSPELPVCAPIIGHHHHHH
Take B4: the “Max (maximum inhibition observed at concentrations tested)” value is 20% in experiment [2] (Ab 6203); 30% in experiment [2] (Ab 6501); 50% in experiment [2] (Ab 6626); 70% in experiment [2] (Ab 6632); 45% in experiment [2] (Ab 6644); 40% in experiment [2] (Ab 7008). Moreover, the “Max (maximum inhibition observed at concentrations tested)” value in experiment [2] (Ab 7015) was found to be 30%; in experiment [2] (Ab 7101) it was 20%; in experiment [2] (Ab 7104), 90%. Moreover, the IC50 in experiment [2] (Ab 6203) is over 10 µM; in experiment [2] (Ab 6501), over 10 µM; in experiment [2] (Ab 6626), over 10 µM; in experiment [2] (Ab 6632), 3 µM; in experiment [2] (Ab 6644), over 10 µM; in experiment [2] (Ab 7008), over 10 µM. The IC50 was over 10 µM in experiment [2] (Ab 7015), over 10 µM in experiment [2] (Ab 7101) and 1 µM in experiment [2] (Ab 7104). Further, the “Maximum O.D.” value in experiment [3] (Ab 6203) is reported as 0.119; in experiment [3] (Ab 6501) it was 0.028; in experiment [3] (Ab 6626) it was 0.073; in experiment [3] (Ab 6632), 0.016; in experiment [3] (Ab 7008) it was 0.008; in experiment [3] (Ab 7015) it was 0.063.
